Experimental data reported in US20120121507A1 (NATIONAL RESEARCH COUNCIL OF CANADA, published 2012).

How the values were obtained:
[1] = target: T1, recombinant human clusterin (human, UniProt P10909 23-449); assay: SPR, rhCLU 0 nM to 1.4 µM over immobilized P3376 (150 RU), response at equilibrium, one-to-one binding model
T1 construct: also called rhCLU; rh-clusterin
Description: (§1) Protein-peptide interactions were followed using a BIAcore 3000 instrument (Biosensor AB, Uppsala, Sweden). All binding experiments were carried out at 25° C. under a continuous flow of the HBS-EP buffer (20 mM HEPES, 150 mM NaCl, 3.4 mM EDTA and 0.05% Tween-200) at pH 7.4 over the sensor surface at a flow rate of 20 μL/min. Different concentrations of rh-clusterin in the HBS-EP buffer were injected over the peptide-derivatized sensor chips. Dissociation was monitored for up to 300 s post-injection. The surfaces were fully regenerated by 15 s injection of an HBS-EP buffer solution containing 5 mM NaOH. […] Reference responses from control flow cells, containing unmodified dextran surfaces, were subtracted from peptide-containing flow cells, for each analyte injection using the BiaEvaluation software version 3.0 (Biacore AB, Uppsala, Sweden).
(§2) The resulting sensorgrams were used for kinetic rate determination through global fitting of the experimental data to a simple 1:1 Langmuir binding model. […] Affinity data (KD) from the binding studies were obtained by plotting the response in RU at the steady state, Req, versus the concentration of clusterin, C, and by fitting these curves to a one-site binding model, Req=C*xRmax/(C+KD) where Rmax is the value in RU at saturation and Req is the observed optical change in RU at each given C. […]

[2] = target: T1, recombinant human clusterin; assay: SPR, rhCLU flowed over immobilized P3376, fit of the response against the clusterin concentration [inset]
Description: as §1, §2

[3] = target: T1, recombinant human clusterin; assay: SPR, rh-clusterin preincubated with mAb 16B5 (ratios of 1:1.7), flowed over immobilized P3378; rh-clusterin preincubated with mAb 16B5 (ratio 1:1.7)
Description: Different concentrations of rh-clusterin in the HBS-EP buffer were injected over the peptide-derivatized sensor chips. Dissociation was monitored for up to 300 s post-injection. The surfaces were fully regenerated by 15 s injection of an HBS-EP buffer solution containing 5 mM NaOH. […] Reference responses from control flow cells, containing unmodified dextran surfaces, were subtracted from peptide-containing flow cells, for each analyte injection using the BiaEvaluation software version 3.0 (Biacore AB, Uppsala, Sweden).
The question of whether an EMT-blocking anti-clusterin monoclonal antibody (mAb) 16B5 and P3378 have overlapping or independent binding sites on clusterin was investigated using SPR biosensor analysis. Several mAbs that interact with clusterin have been isolated; five of these mAbs, including 16B5, interact with an epitope on clusterin that is important for the EMT-promoting action of clusterin. Accordingly, these anti-clusterin mAbs inhibit EMT in cell culture, and tumor metastasis in animal models (O'Connor-McCourt et al, WO 2007/030930). Since clusterin-binding peptides can be used to non-invasively image clusterin-expressing tumors (primary tumors and metastases) in vivo, it is important to determine whether treatment with anti-clusterin mAbs may block peptide binding to the clusterin target and therefore compromise the ability of the peptides to image the tumor. […]

[4] = target: T1, recombinant human clusterin; assay: SPR (BIAcore 3000), rhCLU 5.5 nM-1.4 µM over immobilized P3378 (500 RU), global fit, 1:1 Langmuir
Description: as §1, §2

[5] = target: T1, recombinant human clusterin; assay: SPR, rh-clusterin 0-1.2 µM over immobilized P3378, no antibody; no antibody; rh-clusterin alone over immobilized P3378
Description: as §1, with “All” for “Protein-peptide interactions were followed using a BIAcore 3000 instrument (Biosensor AB, Uppsala, Sweden). All”
(§3) The question of whether an EMT-blocking anti-clusterin monoclonal antibody (mAb) 16B5 and P3378 have overlapping or independent binding sites on clusterin was investigated using SPR biosensor analysis. Several mAbs that interact with clusterin have been isolated; five of these mAbs, including 16B5, interact with an epitope on clusterin that is important for the EMT-promoting action of clusterin. Accordingly, these anti-clusterin mAbs inhibit EMT in cell culture, and tumor metastasis in animal models (O'Connor-McCourt et al, WO 2007/030930). […]

[6] = target: T1, recombinant human clusterin; assay: SPR (BIAcore 3000), rhCLU over immobilized P3378 (500 RU), kinetic global fit, 1:1 Langmuir
Description: as §1, §2

[7] = target: T1, recombinant human clusterin; assay: SPR, rh-clusterin alone flowed over immobilized P3378, fit of the response against the clusterin concentration [inset]
Description: as §1, with “All” for “Protein-peptide interactions were followed using a BIAcore 3000 instrument (Biosensor AB, Uppsala, Sweden). All”
as §3

[8] = target: T1, recombinant human clusterin; assay: SPR, rhCLU flowed over immobilized P3378R
Description: as §1
This control peptide has the same amino acid content as P3378 but with a randomized sequence ([…]—SEQ ID NO:6). A lack of binding between rhCLU and this control peptide is evidenced by the linear nature of the Scatchard plot (inset; the response at equilibrium plotted against the concentration of rhCLU).

[9] = target: T1, recombinant human clusterin; assay: SPR (BIAcore 3000), rhCLU 2 nM-1.1 µM over immobilized P3375 (1200 RU), global fit, 1:1 Langmuir
Description: as §1, §2

[10] = target: T1, recombinant human clusterin; assay: SPR, rhCLU flowed over immobilized P3375, global fit
Description: as §1, §2

[11] = target: T1, recombinant human clusterin; assay: SPR (BIAcore 3000), rhCLU over immobilized P3375 (1200 RU), kinetic global fit, 1:1 Langmuir
Description: as §1, §2

[12] = target: T1, recombinant human clusterin; assay: SPR, rh-clusterin flowed over immobilized P3375R, response against the clusterin concentration [right panel]
Description: as §1
The sequence dependence of the clusterin-peptide interactions was investigated using SPR biosensor analysis and peptides with scrambled sequences. Immobilization of the peptides on the sensor chips and the SPR experiments were conducted as described in Example 4.

T1 sequence (P10909 23-449 limits assumed): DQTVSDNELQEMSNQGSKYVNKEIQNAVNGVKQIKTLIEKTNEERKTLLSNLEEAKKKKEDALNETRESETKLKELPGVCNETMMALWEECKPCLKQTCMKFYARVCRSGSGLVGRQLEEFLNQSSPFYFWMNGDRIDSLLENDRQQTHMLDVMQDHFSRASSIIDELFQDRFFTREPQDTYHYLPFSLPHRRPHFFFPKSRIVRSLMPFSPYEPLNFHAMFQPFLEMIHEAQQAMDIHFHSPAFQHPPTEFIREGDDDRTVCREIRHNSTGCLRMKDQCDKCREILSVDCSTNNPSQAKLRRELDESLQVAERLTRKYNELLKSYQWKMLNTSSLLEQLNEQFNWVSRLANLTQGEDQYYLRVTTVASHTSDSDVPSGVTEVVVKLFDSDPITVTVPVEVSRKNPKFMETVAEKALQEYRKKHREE

B1: P3376 synthetic peptide (SHALPLTWSTAA with C-terminal SGSGC extension) (peptide)
peptide: SHALPLTWSTAASGSGC
notes: In SPR it was immobilised through the C-terminal Cys (thioether); In STD-NMR it was free in solution
B1 gave a Kd [1] of 340 nM and a Kd [2] of 342 nM.

B2: P3378 synthetic peptide (HPLSKHPYWSQP with C-terminal SGSGC extension) (peptide)
peptide: HPLSKHPYWSQPSGSGC
notes: Synthesised by Fmoc chemistry; In SPR it was immobilised on a CM5 chip by a thioether bond from the C-terminal Cys to maleimide; In STD-NMR it was free in solution
B2 showed a Kd [3] of 1100 nM, a koff [4] of 0.0052 s⁻¹ and a kon [4] of 17200 M⁻¹ s⁻¹. The Kd [5] was 520 nM, the Kd [6] was 300 nM and the Kd [7] was 514 nM.

B3: P3378R, randomized-sequence control peptide of P3378 (PYLHQSPHWKPSSGSGC) (peptide)
peptide: PYLHQSPHWKPSSGSGC
notes: Immobilised on the SPR chip; also called scrambled control peptide
B3: no binding [8].

B4: P3375 synthetic peptide (NTYWSQLLHFQT with C-terminal SGSGC extension) (peptide)
peptide: NTYWSQLLHFQTSGSGC
notes: as for B1
With B4 the koff [9] was 0.006 s⁻¹, the kon [9] was 11200 M⁻¹ s⁻¹ and the koff [10] was 0.00603 s⁻¹. The Kd [11] was 540 nM.

For LSLYHTNTQFWQSGSGC (Immobilised on the SPR chip) [P3375R, randomized version of P3375 (LSLYHTNTQFWQSGSGC)], the “EC50 (read off the curve)” value [12] was roughly 200 nM.
